Test results published in article PMC3148250, “Structural Basis for Sequence Specific DNA Binding and Protein Dimerization of HOXA13” (PLoS ONE, 2011).

Assays:
[1] = biological target: the molecule itself; experiment: not stated; K343E mutant of A13DBD; the method is not named for this mutant (the neighbouring mutants were tested by SEC/MALS of the DNA complex)
[2] = biological target: the molecule itself; experiment: SEC-MALS; A13DBD bound to 11-mer DNA duplex; Superdex 75 HR 10/30 at 4°C, calibrated with mass standards, in line with MALS and refractive index; mass as a function of protein concentration; dimer to monomers
[3] = biological target: the molecule itself; experiment: 15N NMR relaxation (rotational correlation time); A13DBD bound to 11-mer DNA duplex, about 0.5 mM, 310 K, 20 mM NaPO4, 5 mM MgCl2, pH 6.0; R2/R1 gives the rotational correlation time and a spherical mass

B1: HOXA13 DNA binding domain (A13DBD) K343E (domain or fragment)
chain: not shown
notes: numbers count on: GenBank AAB03322.1; source: E. coli BL21(DE3), purified (His-tag purification, thrombin cleavage, Superdex-75)
fold lowering of the dimerization affinity against wild type [1]: ~5 fold

B2: HOXA13 DNA binding domain (A13DBD) F344A (domain or fragment)
chain: not shown
notes: numbers count on: GenBank AAB03322.1; Made by QuikChange mutagenesis of pHisA13DBD; The luciferase assay used the same mutation in full-length HOXA13 (pCAGGS-HOXA13) in NG108-15 cells; source: E. coli BL21(DE3), purified (His-tag purification, thrombin cleavage, Superdex-75)
fold weakening of the dimerization affinity against wild type [2]: ≥ 10 fold

B3: HOXA13 DNA binding domain (A13DBD), wild type (domain or fragment)
chain: not shown
notes: numbers count on: GenBank AAB03322.1; The introduction gives residues 314-386 for A13DBD, the methods G320-S386; Cloned in pET-15b; also called HOXA13 homeodomain; WT; source: E. coli BL21(DE3), purified (His-tag purification, thrombin cleavage, Superdex-75)
Kd [2]: < 500 nM | stoichiometry N [3]: 2
